In the DeepSol protein solubility set:

assay: soluble on expression in E. coli; label from the status in PepcDB or PDB records

Sequence	soluble on expression in E. coli
SAPAAALKKAAEAAEPATVTEDATDLQNEVDQELLKDMYGKEHVNIVFIGHVDAGKSTLGGNILFLTGMVDKRTMEKIEREAKEAGKESWYLSWALDSTSEEREKGKTVEVGRAYFETEHRRFSLLDAPGHKGYVTNMINGASQADIGVLVISARRGEFEAGFERGGQTREHAVLARTQGINHLVVVINKMDEPSVQWSEERYKECVDKLSMFLRRVAGYNSKTDVKYMPVSAYTGQNVKDRVDSSVCPWYQGPSLLEYLDSMTHLERKVNAPFIMPIASKYKDLGTILEGKIEAGSIKKNSNVLVMPINQTLEVTAIYDEADEEISSSICGDQVRLRVRGDDSDVQTGYVLTSTKNPVHATTRFIAQIAILELPSILTTGYSCVMHIHTAVEEVSFAKLLHKLDKTNRKSKKPPMFATKGMKIIAELETQTPVCMERFEDYQYMGRFTLRDQGTTVAVGKVVKILD	soluble
SAVVPASLSGQDVGSFAYLTIKDRIPQILTKVIDTLHRHKSEFFEKHGEEGVEAEKKAISLLSKLRNELQTDKPFIRLVEKFVDTDIWNQYLEYQQSLLNESDGKSRWFYSPWLLVECYIDRRIHEAIIQSPPIDYFDVFKESKEQNFYGSQESIIALCTHLQQLIRTIEDLYENQLKDEFFKLLQISLWGNKCDLSLSGGESSSQNTNVLNSLEDLKPFILLNDMEHLWSLLSNCKKTREKASATRVYIVLDNSGFELVTDLILADFLLSSELATEVHFYGKTIPWFVSDTTIHDFNWLIEQVKHSNHKWMSKCGADWEEYIKMGKWVYHNHIFWTLPHEYCAMPQVAPDLYAELQKAHLILFKGDLNYRKLTGDRKWEFSVPFHQALNGFHPAPLCTIRTLKAEIQVGLQPGQGEQLLASEPSWWTTGKYGIFQYDGPL	not soluble
SDDFDMLSAPQGSAGNGVGADEDPAAAFLAQQESEIAGIENDEGFSILDSGDVPSSLSQDQDGGAMNGDLHGESNGPSDVYAAISSVDRLQAEPESLRKWREEQRDRLEELDANSRKQEAEWKEKAKLELEEWHTRQNEQLEKTKVNNRVLDEDFYKQPFADLIGYVTHINHPCYRLDQAAEEAMVSELDENSPGTEWERVARLCDFNPKSSKQAKDVSRMRSVLISLKQAPLVR	soluble
SDDTLFQLKFTAKQLEKLAKKAEKDSKAEQAKVKKALQQKNVECARVYAENAIRKKNEGVNWLRMASRVDAVASKVQTAVTMKGVTKNMAQVTKALDKALSAMDLQKVSAVMDRFEQQVQNLDVHTSVMEDSVSSATTLTTPQEQVDSLIVQIAEENGLEVLDQLSQLPEGASAVGESSVRSQEDQLSRRLAALRN	soluble
SDEINAQSVWSEEISSNYPLCIKNLMEGLKKNHHLRYYGRQQLSLFLKGIGLSADEALKFWSEAFTNMTMEKFNKEYRYSFRHNYGLEGNRINYKPWDCHTILSKPRPGRGDYHGCPFRDWSHERLSAELRSMKLTQAQIISVLDSCQKGEYTIACTKVFEMTHNSASADLEIGEQTHIAHPNLYFERSRQLQK	soluble
SDERDVLWVGVCAMPKKVESEPMQRILAALTSSRVAHFEPMIFDAKTLFERPIHKWPVCDALIAFHSEGFPLERAIAYAELRRPYCLNGLREQRMLLDRSKVYEVLARERVPVPRHIVVRHDGADVGRTDTRFVEHDDYIEYCGERLFKPFVEKPIDAEDHRVCIYYARPLYGRRRLFRKTANQSSVFEPGWRRVRREGAFIYEEFIPSEHQSDIKVYAVGPEYAYAERRKSPVVDGIVERNAHGKELRFPVELSTAERCVAATITAAFRQFVCGFDLIRHADGNAFYVNDVNGFSFVKGSQSYYESCGRILAEHLARECARSAAVDGE	soluble
SDESDLPSAMPAVPAFGVEERNMVSGVLTLAERSIRSIMTPRTDVSWVNIDDDAATIRQQLTAAPHSFFPVCRGSLDEVVGIGRAKDLVADLITEGRVRRNRLRDPIIVHESIGILRLMDTLKRSRGQLVLVADEFGAIEGLVTPIDVFEAIAGEFPDEDELPDIVAESE	soluble
SDFANLSSTNKELSPQYNWVACGILEGGLKAAGVLEEGQYNRELAEAIAAKGEGFWTTQFPQIGDWNEDQAAALADRAQTCGLVKADTYLSELSSNFSS	soluble
SDHFNAPVGMLEAITSVEGVDRVVPTIEMTGVAKTDSAFAGILLMGDNSLRTRNPLFGQTVSGNYPSFSSADTVPNPILLPQVTADKLHLKIGDKLRIYFAGTERMRLRAFTVAGVYSGGKMDMPVGLVSADVLRRVGGLGADDVSRLLIYASDPDETDLIVTRVFDRLSETLYVGEQRLTINTATELNPMIMDWLSALDTN	not soluble
SDIEQKQAEIIDQLVKRASTCKSEALGPLIIEATSHPSLFAFSEILALPNVAQLEGTTDSVYLDLLRLFAHGTWGDYKCNATRLPHLSPDQILKLKQLTVLTLAESNKVLPYDTLMVELDVSNVRELEDFLINECMYAGIVRGKLDQLKRCFEVPFAAGRDLRPGQLGNMLHTLSNWLNTSENLLISIQDKIKWADNMSEMDKKHRKEAEEGVEEVKKSLSMKGDVDIRGNKEMFGEPSGVMDYEEDGIRPKRRRHPVTR	soluble
SDNDLKLLALESETIRSVADLHNKRVGMIRASASEFYFDSLLLANNLKGIPIDKVYGTADQLYQQLFDKQLDAISIWEPWGYKIGVAAESKVTNLSLPGIYTLSFNLLTMKPTTEEEKQRSLAILKA	not soluble
SDPAGASVASAIGGEGEKFAVGNIYSVKVITGDEFRGIVMAYDPIPNFVFFEEGTKPRPGHLKNTRMVNASFITGLSYLGKTEDPFDSDNFSVDLNGLRAKEALAIRQAEADAERMGVGVTAEAQSIFDALSKTLPVQWENSDILVMKEVRVRSPYLSDCVFGGTDAANNRVKKVLELERRRLQLFGT	soluble
SEDCCMLPYYTAQSSPAMGMFNTSMGKLQRQLYKGEYTIFRYAPMFESDFIQISKRGEVIDVHNRARMVTMGIVRTSPCLTLPDVMLLARPAAVCDNARCGPATQKRESPPAEILELTRLLPLMFVKITIHNSVKKQLHLKLATGRSFYLQLCPPSDASEDLFVHWENLVYILRPPVEAYSDTRAILAGNTLDSSVLEEVQRSPVGYAMKFCEEKEQFRISRLHMNAEMFGSTYCDYTIEI	soluble
SEMIVDHRQKAFELLKVDAEKILKLIRVQMDNLTMPQCPLYEEVLDTQMFGLSREIDFAVRLGLVDEKDGKDLLYTLERELSALHDAFTAK	not soluble
SEQSSPGFRQTHLQDLSEATQDVKEENHYLTPRSVLLELDNIIASSDSGESIETDGPDQVSGRIECHYEPMESYFFKETSHESVDSSKEEPQTLPETQDGDLHLQEQGSGIDWCLSPADVEAQTTNDQKGSASLTVVQLSILINNIPDESQVEKLNVFLSPPDVINYLALTEATGRICVSQWEGPRRLGCIFCHGDHLLAVNDLKPQSLEEVSLFLTRSIQKEKLKLTIGRIPNSETFHAASCMCPSKCQSAAPSQLDKPRLNRAPKRSPAIKKSQQKGARE	soluble
SESETRVKSVRTGRKPIGNPEDEQETSKPSDDEFLRGKRVLVVDDNFISRKVATGKLKKMGVSEVEQCDSGKEALRLVTEGLTQREEQGSVDKLPFDYIFMDCQMPEMDGYEATREIRKVEKSYGVRTPIIAVSGHDPGSEEARETIQAGMDAFLDKSLNQLANVIREIESKR	not soluble
SFLNGNCLETLKKKEPEGGRRRLSHPGNMGWMRPSQETTPPDRSHHSGFGLFCGDPGPEIEPFSLWVFPQEMVLEIHQLFMDHEYPCHHITSHCTWVAAHWTTSQSCAAWQGCRRACCSTWWKSPAQCTRPTVMSATFETAQEPGPS	soluble
SGMYKIILNQTARYFAKFAPDNEQNILWGLPLQYGWQYRTGRLADPTRRTNCGYESGDHMCISVDSWWADLNYFLSSLPFLAAVDSGVMGISSDQVRLLPPPKNERKFCYDVSSCRSSFPETMNKWNTFYQYLQSPFSKFDDLLKYLWAAHTSTLADNIKSFEDRYDYYSKAEAHFERSWVLAVDHLAAVLFPTTLIRSYKFQKGMPPRILLNTDVAPFISDFTAFQNVVLVLLNMLDNVDKSIGYLCTEKSNVYRDHSESSSRSYGNNS	not soluble
